Assay results published in patent publication US5569830.

Biological target: polygalacturonase (endo-PG) from the culture filtrate of Botrytis cinerea DEL 11 (Botrytis cinerea DEL 11)

B1: pear polygalacturonase inhibitor protein (PGIP) purified from Pyrus communis L. cv Bartlett fruit (protein)
chain: DLCNPDDKKVLLQIKKAFGDPYVLASWKSDTDCCDWYCVTCDSTTNRINSLTIFAGQVSGQIPALVGDLPYLETLEFHKQPNLTGPIQPAIAKLKGLKSLRLSWTNLSGSVPDFLSQLKNLTFLDLSFNNLTGAIPSSLSELPNLGALRLDRNKLTGHIPISFGQFIGNVPDLYLSHNQLSGNIPTSFAQMDFTSIDLSRNKLEGDASVIFGLNKTTQIVDLSRNLLEFNLSKVEFPTSLTSVDINHNKIYGSIPVEFTQLNFQFLNVSYNRLCGQIPVGGKLQSFDEYSYFHNRCLCGAPLPSCK
modifications: glycoprotein: N-linked glycans (seven potential N-glycosylation sites; occupied sites not determined)
  release of reducing sugars from sodium polypectate (reducing sugar assay) (times (against the tomato PGIPs)): 20
